Source: patent publication US20190315842A1

Assays:
[1] = target: systemic lupus erythematosus autoantigen SSB (UniProt P05455); experiment: AtheNA Multi-Lyte ANA, Ab at 50 ug/ml
ribonucleoprotein (RNP) [2] = experiment: AtheNA Multi-Lyte ANA, Ab at 50 ug/ml
centromere B (CentB) [3] = target: centromere B (CentB) (UniProt P07199); experiment: AtheNA Multi-Lyte ANA, Ab at 50 ug/ml
[4] = target: systemic lupus erythematosus autoantigen SSA; experiment: AtheNA Multi-Lyte ANA, Ab at 50 ug/ml
Sm (sphingomyelin) [5] = experiment: AtheNA Multi-Lyte ANA, Ab at 50 ug/ml
[6] = target: sclerosis autoantigen (Scl-70) (UniProt P11387); experiment: AtheNA Multi-Lyte ANA, Ab at 50 ug/ml
[7] = target: histidine-tRNA ligase (Jo-1) (UniProt P12081); experiment: AtheNA Multi-Lyte ANA, Ab at 50 ug/ml
histones [8] = experiment: AtheNA Multi-Lyte ANA, Ab at 50 ug/ml
[9] = target: systemic lupus erythematosus autoantigen SSB (UniProt P05455); experiment: AtheNA Multi-Lyte ANA, Ab at 25 ug/ml
ribonucleoprotein (RNP) [10] = experiment: AtheNA Multi-Lyte ANA, Ab at 25 ug/ml
centromere B (CentB) [11] = target: centromere B (CentB) (UniProt P07199); experiment: AtheNA Multi-Lyte ANA, Ab at 25 ug/ml
[12] = target: systemic lupus erythematosus autoantigen SSA; experiment: AtheNA Multi-Lyte ANA, Ab at 25 ug/ml
Sm (sphingomyelin) [13] = experiment: AtheNA Multi-Lyte ANA, Ab at 25 ug/ml
[14] = target: sclerosis autoantigen (Scl-70) (UniProt P11387); experiment: AtheNA Multi-Lyte ANA, Ab at 25 ug/ml
[15] = target: histidine-tRNA ligase (Jo-1) (UniProt P12081); experiment: AtheNA Multi-Lyte ANA, Ab at 25 ug/ml
histones [16] = experiment: AtheNA Multi-Lyte ANA, Ab at 25 ug/ml

Chain of systemic lupus erythematosus autoantigen SSB (P05455 whole entry): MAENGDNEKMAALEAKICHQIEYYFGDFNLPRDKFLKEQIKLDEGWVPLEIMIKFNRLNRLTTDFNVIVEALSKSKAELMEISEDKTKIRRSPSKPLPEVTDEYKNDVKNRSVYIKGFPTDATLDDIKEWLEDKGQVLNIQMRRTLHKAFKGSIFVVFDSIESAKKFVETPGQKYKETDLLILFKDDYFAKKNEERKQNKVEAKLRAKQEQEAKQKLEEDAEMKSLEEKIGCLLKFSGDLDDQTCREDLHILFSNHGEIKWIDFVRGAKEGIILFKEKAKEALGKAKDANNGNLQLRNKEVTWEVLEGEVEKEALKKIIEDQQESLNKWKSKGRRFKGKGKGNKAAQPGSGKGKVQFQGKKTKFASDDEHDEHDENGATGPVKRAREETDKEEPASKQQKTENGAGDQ
Chain of sclerosis autoantigen (Scl-70) (P11387 2-765 limits assumed): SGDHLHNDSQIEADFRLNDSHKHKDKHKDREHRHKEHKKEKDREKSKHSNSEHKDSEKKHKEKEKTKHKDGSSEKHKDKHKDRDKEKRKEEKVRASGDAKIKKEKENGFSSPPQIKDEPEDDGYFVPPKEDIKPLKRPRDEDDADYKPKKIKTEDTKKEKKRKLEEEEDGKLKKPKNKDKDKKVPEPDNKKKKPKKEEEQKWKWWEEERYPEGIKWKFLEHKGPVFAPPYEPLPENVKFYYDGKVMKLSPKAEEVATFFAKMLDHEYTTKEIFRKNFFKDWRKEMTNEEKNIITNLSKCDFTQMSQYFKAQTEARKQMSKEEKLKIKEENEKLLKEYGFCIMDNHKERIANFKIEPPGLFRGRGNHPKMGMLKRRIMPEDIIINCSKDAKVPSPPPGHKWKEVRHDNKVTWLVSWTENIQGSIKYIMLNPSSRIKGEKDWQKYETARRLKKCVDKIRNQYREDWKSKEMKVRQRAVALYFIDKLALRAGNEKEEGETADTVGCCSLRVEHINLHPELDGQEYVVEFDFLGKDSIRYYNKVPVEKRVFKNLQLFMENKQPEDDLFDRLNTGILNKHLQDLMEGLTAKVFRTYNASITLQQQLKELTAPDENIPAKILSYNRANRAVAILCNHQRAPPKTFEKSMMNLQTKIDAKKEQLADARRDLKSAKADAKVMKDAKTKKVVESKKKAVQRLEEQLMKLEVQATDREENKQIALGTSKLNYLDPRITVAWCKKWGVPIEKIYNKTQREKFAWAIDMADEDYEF
Chain of centromere B (CentB) (P07199 2-599): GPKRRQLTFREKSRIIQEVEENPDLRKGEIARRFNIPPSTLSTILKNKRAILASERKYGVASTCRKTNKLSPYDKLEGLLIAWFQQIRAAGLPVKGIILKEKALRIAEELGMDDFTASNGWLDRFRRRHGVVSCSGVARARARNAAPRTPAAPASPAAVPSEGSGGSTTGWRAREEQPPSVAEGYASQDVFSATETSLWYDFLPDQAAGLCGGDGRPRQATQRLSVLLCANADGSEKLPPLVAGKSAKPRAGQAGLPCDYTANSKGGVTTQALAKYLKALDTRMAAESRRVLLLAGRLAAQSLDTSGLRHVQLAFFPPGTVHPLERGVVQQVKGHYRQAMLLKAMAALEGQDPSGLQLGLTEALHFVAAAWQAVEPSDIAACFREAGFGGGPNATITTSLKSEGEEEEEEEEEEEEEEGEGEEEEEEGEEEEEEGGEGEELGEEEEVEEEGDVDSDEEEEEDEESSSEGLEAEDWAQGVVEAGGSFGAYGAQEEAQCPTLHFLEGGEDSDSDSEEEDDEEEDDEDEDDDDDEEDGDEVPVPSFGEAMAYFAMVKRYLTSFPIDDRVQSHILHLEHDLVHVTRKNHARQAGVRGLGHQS
Chain of histidine-tRNA ligase (Jo-1) (P12081 2-509): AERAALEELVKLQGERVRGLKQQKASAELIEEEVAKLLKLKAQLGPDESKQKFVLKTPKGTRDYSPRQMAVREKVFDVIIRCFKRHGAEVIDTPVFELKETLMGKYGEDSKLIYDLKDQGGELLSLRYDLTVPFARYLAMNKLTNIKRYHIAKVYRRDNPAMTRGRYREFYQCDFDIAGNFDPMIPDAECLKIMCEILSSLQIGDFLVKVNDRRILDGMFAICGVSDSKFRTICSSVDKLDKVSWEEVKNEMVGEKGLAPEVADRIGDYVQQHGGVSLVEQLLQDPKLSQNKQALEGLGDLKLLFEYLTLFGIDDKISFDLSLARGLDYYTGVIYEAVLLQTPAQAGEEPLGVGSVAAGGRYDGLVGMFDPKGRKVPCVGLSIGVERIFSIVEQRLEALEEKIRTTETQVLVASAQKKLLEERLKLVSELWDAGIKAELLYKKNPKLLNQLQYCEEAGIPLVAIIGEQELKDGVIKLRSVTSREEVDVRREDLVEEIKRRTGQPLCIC

AtheNA signal [1] | AtheNA signal (ribonucleoprotein (RNP) [2]) | AtheNA signal (centromere B (CentB) [3]) | AtheNA signal [4] | AtheNA signal (Sm (sphingomyelin) [5]) | AtheNA signal [6] | AtheNA signal [7] | AtheNA signal (histones [8]) | AtheNA signal [9] | AtheNA signal (ribonucleoprotein (RNP) [10]) | AtheNA signal (centromere B (CentB) [11]) | AtheNA signal [12] | AtheNA signal (Sm (sphingomyelin) [13]) | AtheNA signal [14] | AtheNA signal [15] | AtheNA signal (histones [16]) | Substance
5 | 1 | 1 | 0 | 4 | 1 | 1 | 2 | 6 | 3 | 1 | 2 | 2 | 2 | 1 | 1 | SYNAGIS (anti-RSV monoclonal antibody palivizumab)
184 | 18 | 12 | 92 | 11 | 3 | 149 | 20 | 157 | 13 | 7 | 75 | 7 | 3 | 124 | 15 | 4e10 (Anti HIV, NIH AIDS Reagent Program) (antibody)
